This note sets out measurements from PMC5791537 (Biomolecular NMR assignments, 2017).

The target in the assay is C-domain fragment of human calmodulin (residues 76-148), calcium-free (apo) (human, UniProt P0DP23 77-149). Nature of the assay: NMR backbone assignment and chemical shift perturbation.

As for GPGSKRKQEEVSAIIIQRAYRRYLLKQKVKK, the binding result was “binds”.
